The text below walks through data of the supplement of paper PMC10567573.

B1: WEE1 (parent)
chain: FLGSSFSPVRCGGPGDASPRGCGA
B2: DCAF4 (parent)
chain: DSHILLCLMGLAETPGCATLLPAS
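Note: lentivirally expressed fusions sorted by FACS into six bins by GFP to DsRed ratio, PSI derived from sequencing read proportions per bin multiplied by bin number.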

Variants of B1 are the subject of the first data set. The experiment in a line: protein stability index of a GFP-peptide fusion (GPS, HEK-293T) (PSI 1-6); higher = more stable. Particulars: c terminus: a fixed tail appended.
With LLGSSFSPVRCGGPGDASPRGCGA [F1L], the protein stability index came to 2.56.
On to HLGSSFSPVRCGGPGDASPRGCGA [F1H], for which the protein stability index was 3.26.
For NLGSSFSPVRCGGPGDASPRGCGA [F1N], the protein stability index turned out to be 2.48.
On the same count and under the same terms, under SLGSSFSPVRCGGPGDASPRGCGA [F1S] stands 2.87; under FLGSSFPPVRCGGPGDASPRGCGA [S7P], 1.36.
Same read-out and setting: next, FLGSSFAPVRCGGPGDASPRGCGA [S7A]: 1.4.
Regarding FLGSSFVPVRCGGPGDASPRGCGA [S7V], the protein stability index stood at 1.03.
Take FLGSSFMPVRCGGPGDASPRGCGA [S7M]: the protein stability index was found to be 2.48.
Same read-out and setting: under FLGSSFTPVRCGGPGDASPRGCGA [S7T] stands 2.9; under FLGSSFIPVRCGGPGDASPRGCGA [S7I], 2.34; under FLGSSFGPVRCGGPGDASPRGCGA [S7G], 2.73.
For the variant FLGSSFFPVRCGGPGDASPRGCGA [S7F], the protein stability index turned out to be 1.12.
On the same count and under the same terms, under FLGSSFSPVRCGGPGDWSPRGCGA [A17W] stands 2.29; under FLGSSFSPVRCGGPGDTSPRGCGA [A17T], 1.4; under FLGSSFSPVRCGGPGDISPRGCGA [A17I], 1.87.
On to FLGSSFSPVRCGGPGDLSPRGCGA [A17L], for which the protein stability index turned out to be 1.78.
For FLGSSFSPVRCSGPGDASPRGCGA [G12S], the protein stability index amounted to 2.
In the case of FLGSSFSPVRCRGPGDASPRGCGA [G12R], the protein stability index was 2.1.
Consider FLGSSFSPVRCAGPGDASPRGCGA [G12A], for which the protein stability index was found to be 1.78.
FLGSSFSPVRCPGPGDASPRGCGA [G12P]: the protein stability index came to 2.38.
In the case of FLGSSFSPVRCDGPGDASPRGCGA [G12D], the protein stability index was determined as 1.85.
For the variant FLGSSFSPVRCKGPGDASPRGCGA [G12K], the protein stability index was 2.31.
On to FLGSSFSPVRCWGPGDASPRGCGA [G12W], for which the protein stability index was determined as 1.9.
Consider FLGSSFSPWRCGGPGDASPRGCGA [V9W], for which the protein stability index was found to be 2.19.
On the same count and under the same terms, next, FLGSSFSPLRCGGPGDASPRGCGA [V9L]: 1.1; FLGSSFSPSRCGGPGDASPRGCGA [V9S]: 1.88.
In the case of FCGSSFSPVRCGGPGDASPRGCGA [L2C], the protein stability index amounted to 1.95.
Still for that read-out and setting: under FAGSSFSPVRCGGPGDASPRGCGA [L2A] stands 2.06; under FQGSSFSPVRCGGPGDASPRGCGA [L2Q], 1.85; under FWGSSFSPVRCGGPGDASPRGCGA [L2W], 2.35.
Still for that read-out and setting: under FTGSSFSPVRCGGPGDASPRGCGA [L2T] stands 1.6.
On to FHGSSFSPVRCGGPGDASPRGCGA [L2H], for which the protein stability index was 2.02.
Take FDGSSFSPVRCGGPGDASPRGCGA [L2D]: the protein stability index was found to be 3.37.
Regarding FLGSSFSPVFCGGPGDASPRGCGA [R10F], the protein stability index came out at 2.95.
For the variant FLGSSFSPVDCGGPGDASPRGCGA [R10D], the protein stability index turned out to be 2.68.
On the same count and under the same terms, under FLGSSFSPVMCGGPGDASPRGCGA [R10M] stands 1.64; under FLGSSFSPVVCGGPGDASPRGCGA [R10V], 2.
In the case of FLGSSFSPVPCGGPGDASPRGCGA [R10P], the protein stability index stood at 2.04.
Take FLGSSFSPVCCGGPGDASPRGCGA [R10C]: the protein stability index came out at 1.73.
Regarding FLGSSFSPVACGGPGDASPRGCGA [R10A], the protein stability index turned out to be 1.83.
For the variant FLGSSFSPVRCGDPGDASPRGCGA [G13D], the protein stability index was found to be 1.57.
As for FLGSSFSPVRCGEPGDASPRGCGA [G13E], the protein stability index was 1.52.
As for FLGSSFSPVRCGHPGDASPRGCGA [G13H], the protein stability index came out at 1.87.
The same measure, in the same setting: next, FLGSSFSPVRCGVPGDASPRGCGA [G13V]: 2.05; FLGSSFSPVRCGTPGDASPRGCGA [G13T]: 1.55.
Still for that read-out and setting: under FLGSSFSPVRCGIPGDASPRGCGA [G13I] stands 2.43; under FLGSSFSPVRCGQPGDASPRGCGA [G13Q], 2.98.
With FLGSSFSPVRCGLPGDASPRGCGA [G13L], the protein stability index came out at 2.58.
Consider FLGSSFSPVRCGRPGDASPRGCGA [G13R], for which the protein stability index was 1.87.
For FLGSSFSPVRVGGPGDASPRGCGA [C11V], the protein stability index was 1.95.
In the case of FLGSSFSPVRTGGPGDASPRGCGA [C11T], the protein stability index is 2.27.
Consider FLGSSFSPVRYGGPGDASPRGCGA [C11Y], for which the protein stability index was 2.01.
FLGSSFSPVRCGGPGDASPRGLGA [C22L]: the protein stability index was found to be 1.75.
Same read-out and setting: under FLGSSFSPVRCGGPGDASPRGGGA [C22G] stands 2.13; under FLGSSFSPVRCGGPGDASPRGDGA [C22D], 1.61.
With FLGSSFSPVRCGGPGDASPRGVGA [C22V], the protein stability index amounted to 1.73.
Turning to FLGSSFSPVRCGGPGDASPRGSGA [C22S], the protein stability index is 2.73.
Same read-out and setting: next, FLGSSFSPVRCGGPGDASPRGPGA [C22P]: 1.59; FLGSSFSPVRCGGPGDASPRGIGA [C22I]: 1.58; FLGSSFSPVRCGGMGDASPRGCGA [P14M]: 1.17.
For FLGSSFSPVRCGGCGDASPRGCGA [P14C], the protein stability index worked out at 2.18.
On to FLGSSFSPVRCGGGGDASPRGCGA [P14G], for which the protein stability index amounted to 2.04.
On the same count and under the same terms, under FLGSSFSPVRCGGEGDASPRGCGA [P14E] stands 2.22; under FLGSSFSPVRCGGLGDASPRGCGA [P14L], 1.59.
In the case of FLGSSFSPVRCGGIGDASPRGCGA [P14I], the protein stability index is 2.29.
The same measure, in the same setting: next, FLGSSFSPVRCGGDGDASPRGCGA [P14D]: 1.9.

The next data set covers variants of B2. The description is as above. Conditions: c terminus: a fixed tail appended.
As for DSHILLCLMGLAETPGCATLLPYS [A23Y], the protein stability index was 1.75.
Take DSHILLCLMGLAETPGCATLLPCS [A23C]: the protein stability index came to 1.89.
Turning to DSHILLCLMGLAETPGCATLLPHS [A23H], the protein stability index was found to be 1.66.
Take DSHILLCLMGLAETPGCATLLPFS [A23F]: the protein stability index was 3.27.
Turning to DSHILLCLMGLAETPGCATLLPRS [A23R], the protein stability index was 3.3.
In the case of DSHILLCLMGLAETPGCATLLPMS [A23M], the protein stability index turned out to be 1.66.
Consider DSHILLCLMGLAETPGCATLLPPS [A23P], for which the protein stability index worked out at 1.79.
Same read-out and setting: under DSHILLCLMGLAETPGCATLLPIS [A23I] stands 3.11; under DSHILLCLMGLAETPGCATLLPES [A23E], 3.69.
As for DSHILLCLMGLAETPGCATLLPLS [A23L], the protein stability index came to 1.69.
For DSHILLCLMGLAETPGCATLLPNS [A23N], the protein stability index was 3.13.
For DSHILLCLMGLAETPGCATLLPGS [A23G], the protein stability index was found to be 2.37.
On to DSHILLCLMGLAETPGCATLLPQS [A23Q], for which the protein stability index came out at 2.72.
Regarding DSHILLCLMGLAETPGCATLLPTS [A23T], the protein stability index stood at 2.42.
Same read-out and setting: next, DSHILLCLMGLAETPGCATLLPVS [A23V]: 1.49.
In the case of DSHILLCLMGLAETPGCATLLPDS [A23D], the protein stability index amounted to 2.79.
In the case of DSHILLCLMGLAETPGCATLLRAS [P22R], the protein stability index worked out at 3.03.
Turning to DSHILLCLMGLAETPGCATLLPAP [S24P], the protein stability index was found to be 2.36.
Same read-out and setting: under DSHILLCLMGLAETPGCATLLPAC [S24C] stands 4.56; under DSHILLCLMGLAETPGCATLLPAN [S24N], 2.69; under DSHILLCLMGLAETPGCATLLPAA [S24A], 1.39.
For DSHILLCLMGLAETPGCATLLPAE [S24E], the protein stability index came to 1.74.
In the case of DSHILLCLMGLAETPGCATLLPAY [S24Y], the protein stability index stood at 2.91.
For the variant DSHILLCLMGLAETPGCATLLPAI [S24I], the protein stability index amounted to 2.82.
On the same count and under the same terms, next, DSHILLCLMGLAETPGCATLLPAT [S24T]: 3.75.
Take DSHILLCLMGLAETPGCATLLPAD [S24D]: the protein stability index was determined as 1.92.
With DSHILLCLMGLAETPGCATLLPAR [S24R], the protein stability index stood at 2.1.
As for DSHILLCLMGLAETPGCATLLPAW [S24W], the protein stability index is 2.76.
